Data on three molecules can be found in patent US20080260750A1 (MCGILL UNIVERSITY, published 2008).

Sequences and labels used below:
T1: ACC-3D10.5 acetylcholine-gated chloride channel subunit (C. elegans, UniProt G5EDN0 20-517)
T1 sequence: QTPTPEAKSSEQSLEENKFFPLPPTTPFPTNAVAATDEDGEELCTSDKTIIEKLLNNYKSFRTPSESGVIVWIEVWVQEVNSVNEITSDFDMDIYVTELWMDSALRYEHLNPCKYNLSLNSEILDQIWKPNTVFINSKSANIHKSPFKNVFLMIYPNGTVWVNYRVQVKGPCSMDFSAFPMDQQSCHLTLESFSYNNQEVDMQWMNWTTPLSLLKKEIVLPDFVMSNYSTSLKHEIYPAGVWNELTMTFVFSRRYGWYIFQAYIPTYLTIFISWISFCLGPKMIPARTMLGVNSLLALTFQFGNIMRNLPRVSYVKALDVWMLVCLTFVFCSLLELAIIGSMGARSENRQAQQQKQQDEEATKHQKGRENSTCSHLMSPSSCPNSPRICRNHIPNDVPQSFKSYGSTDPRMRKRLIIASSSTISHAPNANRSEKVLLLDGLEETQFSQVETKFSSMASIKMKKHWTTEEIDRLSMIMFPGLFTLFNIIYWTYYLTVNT

B1: ACC-4E9.9 acetylcholine-gated chloride channel subunit (receptor)
chain: LLRSLEDDSNECMFNCPKRARNVSVPHTEKTCMGDDAIIAQILDGYNKLDLPGGGHVVVSIEIWVQEVSKIIEITSEFELDIYVTERWTDPSLAYSHLNPCKSNMSVDGATILNKIWNPHACFVNSKLANIHESPFKNIFLQIYSNGSIWHNYRIKLTGPCSSTLRTFPIDQQRCMLFYESFTHNTDQVKMEWITTVPPITILKGNITLPDYVLVDFSSSSELRLYPPGIFNELIATFTFQRLYGFYILQVYVPAYISVFISWVSFTLGAEQIPSRTTVGVNSLLALTFQFGAVVNNLPKTSDVKAIDVWILSSMAFIFASLIELAVVGYLSRDGQHGSIKCRCSWLCMNCKDWTALKIDQMSSIVFPVSFLAFNIWYWFIFLGKLLVRTI
B2: ACC-2D6.3 acetylcholine-gated chloride channel subunit (receptor)
chain: DYSELVHSAELVSSSSYIHHKTNKKPDNCTRDTDIIDRLLNGTGYNKFRIPQEEGMTVVVEIWIQAITSIDELTNDFDMDIYITETWLDPALNFQTMTPCKGNLSLNHQVLDRLWTPNSCFINSKVAQIHNSPFRSVFLMLFPNGTVMVNYRVRVKGPCSLDLSNFPLDLQKCSLIYESFNYNRQEVEMRWSDAEHPVFNLSKIMLPDFDLFEIQTERRQEPYPAGMWDELHVTIIFERRFIWYFMQAYLPTYLTIFISWISFSLGSRAIPARTMLGVNSLLAIVFSFGNIMRNLPRVSYIKGIDVWMLVSMTFIFCSLLELAIVGFMVRDETVAKKKQQKKISGNISREESPHGIISERRFMFPPGCSESSKSLSSCTSGWTPERIDSISSVMFPFSFFVFNIIYWFYYIHRKEIIKQNLINRVDG
notes: Expressed from cRNA in Xenopus oocytes; also called ACC-2D6.3 receptor; ACC-2D6.3 channel
B3: ACC-1G6.4 acetylcholine-gated chloride channel subunit (receptor)
chain: QSLDNCANDTEIINALLKDSYNKHYIPSHPTHVRVDMWVQEVTSVSELTQDFEIDLYINEFWEDPALVYEDMNPCKRNISFDDKVLQRLWLPNTCFINSKSAAIHESPFKNVFLMVFSNGTLWTNYRMKLTGPCDMKLKRFPFDKQKCYLTFESFNYNTGEVRMQWNQPYPVILLKRIELPDFKLVNFSVIAVEQMYPAGWWDELTVAFVFERRYGWYVLQGYIPTMVTIVISWISFYLGPRAIPARTMLGVNSLLAMTFQFGNIIRNLPRVSYVKAIDVWMLSGMLFIFLSLLELAVVGFMSRNEGLPPKVKKRKRQEDDDEGFSWKSMQTSPHLELRQFWVDKRVNSLRNDSAVPPVEDYAPMELEQPYQNITKRREKRKWMSGLRKKWRAMRELRPETVDFYSAIFFPTAYMLFNISYWSFYLTSLSEYFDEDVNIDQP
notes: Expressed from cRNA in Xenopus oocytes; also called ACC-1G6.4 receptor; ACC-1G6.4 channel

The target in test [1] is B2. Kind of test: co-expression in Xenopus oocytes, two-electrode voltage clamp (inferred from loss of the ACh response). Background: Two-electrode voltage clamp holds a large cell at a set potential and records current.
Experimental: (§1) Oocytes were injected with 40 nl of cRNA using the Nanoject system (Drummond Scientific, Broomall, Pa., USA). Injected oocytes were incubated at 20° C. in ND96 supplemented with 100 mg/ml gentamycin and 550 mg/ml pyruvate. Oocytes were allowed to express cRNA for two days before measurements were taken.
For test [2], the target named is T1, ACC-3D10.5 acetylcholine-gated chloride …. Described as above.
Experimental: as §1
Test [3] has the same target. The test is described as follows: co-expression in Xenopus oocytes, two-electrode voltage clamp (inferred from changed desensitization, EC50 and Hill coefficient for ACh).
Experimental: as §1

Take B1: in test [1], the binding result is “binds”.
Regarding B2, the binding result in test [2] is “binds”.
B3: the binding result in test [3] is listed as “binds”.
